Test results reported in the supplement of paper PMC12764529.
± gives the half width of the 95% confidence interval.

How the values were obtained:
[1] = folding stability dG unfold from trypsin proteolysis; higher = more stable
In short: (§1)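 Designed mini-proteins with no cysteine and under 80 residues were kept only if AlphaFold2 dimer inter-PAE was above 15. In a PA-tagged cDNA display construct, they were digested with trypsin and chymotrypsin and then sequenced. K50 was inferred by Bayesian fitting of counts, and unfolding free energy was derived per protease or combined against a sequence-predicted unfolded-state K50 and a shared folded-state K50.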

[2] = folding stability dG unfold (combined trypsin and chymotrypsin); higher = more stable
In short: as §1

[3] = folding stability dG unfold from chymotrypsin proteolysis; higher = more stable
In short: as §1

| Sequence | folding stability dG unfold [1] [kJ/mol] | folding stability dG unfold [2] [kJ/mol] | folding stability dG unfold [3] [kJ/mol] |
| --- | --- | --- | --- |
| SAGGKEKIILIPAKDKEKVLELLKALADEGKTVRIINLKTGKVEEVTVDELLALAEKTNEPILIEVESAGGS [r16_263_TrROS_Hall] | 15.4 ± 0.753 | 14 ± 0.879 | 12.5 ± 0.46 |
| SAGGSAGGKLKVRIEIYRKDPKTNKWTKVKTIEIEIEAESEEELLAAAKALAPPGYEVKVELLPSAGGSAGG [r6_623_TrROS_Hall] | 17.8 ± 1 | 21.6 ± 1.42 | 21.9 ± 0.879 |
| SAGGSAGGSAGMNPVVIETTETLPNGTVVRTTEIVDPSNPDKVVSTKTEISSVPSNAPLLSAGGSAGGSAGG [r17_299_JUSTAS] | 1.43 ± 0.343 | 0.93 ± 0.46 | 0.471 ± 0.18 |
| SAGGSAGGSMPVVRIKVRYFNKDGKPVKEKEITITLPAEEITADELRKRLEEAGYEIVEIEVVSAGGSAGGS [r12_611_TrROS_Hall] | 14.3 ± 0.335 | 15 ± 0.255 | 15.2 ± 0.226 |
| SAGGSAGGSPKIELLDSRPRPDGSLVELLAIEAEDEIRLLVIVTHPDGVDIRFFEPEYPDLDLSAGGSAGGS [r12_315_TrMRF] | 1.61 ± 0.628 | 1.17 ± 1.26 | 0.0335 ± 0.753 |
| SAGKEEAEKNKIAVLHLELYHPDGTKVSITIAFHPDKPEAVIEELTKLGYPLKDLIKNHPDLKILKIEPSAG [r5_430_TrMRF] | 7.15 ± 0.385 | 7.15 ± 0.46 | 6.56 ± 0.184 |
| SPIYVFIEKTNNKRTIMIQNPENGWWVEIKFNGGEITFPIDSVEDFLDELKDLGWPIEITKIRPLPPGQLSA [r9_1102_TrROS] | 11.7 ± 0.711 | 13.2 ± 0.669 | 13.9 ± 0.502 |
| SAGGSAGGSMKIVIVVDEDGSVRVRIEETGEEITFPKGMTAEEIAELLKKKFPNLEVEIVEVPSAGGSAGGS [r12_423_TrROS_Hall] | 17.9 ± 0.795 | 15.7 ± 1 | 12.9 ± 0.502 |
| SAGGNRIMFFFDTPEQAREIAKELAKNFPGYKLDVEVHTQEMKVKDPDNGEEQRYPMVMVEIEIKPPSAGGS [r16_828_TrROS] | 6.71 ± 0.205 | 6.36 ± 0.711 | 6.03 ± 0.544 |
| SAGGEVKITVEKKGDGTVTVTITVKAKSLEDLLKALESLPGVEITKVEIEKDKETNEYTIRVTIKVKPSAGG [r13_796_TrROS_Hall] | 11.2 ± 0.285 | 15.2 ± 0.628 | 17 ± 0.46 |
| GPMTVSTKTSTKTYFDPETGVETVVEPVTVTVTFPTSPTVTYTTTVTTTTKVERLPDGPLRTETTTTTTVSS [r1_296_JUSTAS] | -0.565 ± 0.711 | 0.0706 ± 0.586 | -1.27 ± 1.59 |
| SAGFVPGKLKAVDPNGNEIDVIEIEELPNGKVIAKGKNKTNGFPYIATYDPVSGKVYIILPNGKVIEIGSAG [r5_809_TrMRF] | 3.63 ± 0.31 | 6.48 ± 0.544 | 7.6 ± 0.502 |
| SAPFQIKEITVNPKDGEAEINFPLENLPPPWMIHIFDKDKGKTQWIPPGGEIEIRAPEGPVKIMIFWRDSAG [r14_134_TrROS] | 5.33 ± 0.502 | 4.87 ± 1.05 | 4.1 ± 1.88 |
| SAGGSAGGKPPKPPKKVTITVTITFTLEDGKTVTVTAKITFLPDGTIKIEITYPDGSKLTLTFPSAGGSAGG [r6_109_TrROS_Hall] | 15.7 ± 1.46 | 19.2 ± 0.962 | 20.1 ± 0.753 |
| SAGGSAGGSAGKYAIVEVNGKPVLVEFEPLPDDKVKVKIVFPDGSKVEIELKANEPIYVGSAGGSAGGSAGG [r11_525_TrMRF] | 7.34 ± 0.397 | 7.64 ± 0.544 | 7.2 ± 0.318 |
| SAGGSAGGSAGDKGYVMVTFPIEMTQYVYDPDGKPIGQHKHEMPITVMIPPNAAKKLLQASAGGSAGGSAGG [r11_620_TrROS] | 0.779 ± 0.28 | 2.48 ± 0.293 | 3.23 ± 0.259 |
| SAGGPLGNLTLDQIVDLVREAFPDLPVRVDVEPIDEETGYVRVTVEPPLPNGGTARAEFILPILPDDSAGGS [r16_564_TrMRF] | 3.29 ± 0.0795 | 4.47 ± 0.318 | 5.25 ± 0.276 |
| SAGGSAGGSMGYLTEPDISVTRTPDGTVTVTTTNTTYDPSTGKKLSTTTTTTTVTLAPDEELLSAGGSAGGS [r12_1038_JUSTAS] | 2.52 ± 0.234 | 3.07 ± 0.46 | 2.63 ± 0.218 |
| SAGGLAEEIVEELKERFPGMDVDIDVKEEEDPNNGWVKITIMVRVRNPDDNKPRHEIQLDIEIPVDDSAGGS [r8_207_TrROS] | 7.07 ± 0.234 | 7.62 ± 0.36 | 7.91 ± 0.151 |
| SAGGSAGGTIMIQFPDMDSPEEAIDQAEFFINEFMKQGNPGKPIKVTIQDPKNGQQQTFEIPLESAGGSAGG [r6_238_TrROS] | -3.91 ± 2.05 | -0.476 ± 0.669 | 1.02 ± 0.669 |
| SAGMMVVVELTVGFEPDEIEPEEIREAIEEHAAEVEIDPNPETDILPIRVIAEPGKIEAIVDALKEAGGSAG [r5_378_TrMRF] | 4.54 ± 0.289 | 2.81 ± 0.92 | 0.279 ± 0.795 |

| Sequence | folding stability dG unfold [1] [kJ/mol] | folding stability dG unfold [2] [kJ/mol] | folding stability dG unfold [3] [kJ/mol] |
| --- | --- | --- | --- |
| SGKKIEIVKKILEELGIPIVKIEEVTPDRIVVEVEEGRRISIAIKPDDPDVVLIDPKPTEDGGWSSDLPDSA [r9_809_TrMRF] | 5.27 ± 0.159 | 4.42 ± 0.502 | 3.93 ± 0.176 |
| SAGGSAGGNITPEAKKLVEELADQISEEFPNNGMDIEVEDITWQPDGNVVIRIRFNGWTIWIPVSAGGSAGG [r6_495_TrROS] | 6.03 ± 0.347 | 8.5 ± 0.669 | 9.43 ± 0.209 |
| SAGGSAGGSMVYTPPEVLTPVREVTITVTTSSYSPSGGTPVTSTSTVPVLVYKDPSGRTAIVPPSAGGSAGG [r6_278_JUSTAS] | -0.0892 ± 0.301 | 0.664 ± 0.46 | 0.815 ± 0.795 |
| SAGGSAGGPEVTITVEEKDGYLVLTVTVPPGVERLELTIEVNGKLVTLELELKPGQTLTFVLPPSAGGSAGG [r6_971_TrROS_Hall] | 19.2 ± 1.26 | 16.6 ± 0.544 | 16.1 ± 0.502 |
| SAGGSLEEVARALARELGLPDVEVRDIPVEVLPNGTVRIPVTIVRPEAGEPLPPLEVELAPDEPLLSAGGSA [r2_137_JUSTAS] | -0.0432 ± 0.586 | -0.83 ± 0.586 | -0.987 ± 0.628 |
| SAGGSAGGSAGGMEVEYNPEELSPESEVTITVTLPGGEKVELKAKIYTNPDGSLSYELESAGGSAGGSAGGS [r10_390_JUSTAS] | 2.91 ± 0.197 | 5.44 ± 0.222 | 6.63 ± 0.146 |
| SAGGSAGGSAQWVIRIKMPNGSTRELRIPGMTPEKAREIAKELADQNNIKDVDIYPPGQKISAGGSAGGSAG [r3_160_TrROS] | 4.11 ± 0.172 | 3.04 ± 0.418 | 1.64 ± 0.711 |
| SAGGSAGGSAGGSTGITSTFFDPKTGTVTTTTLVPSTGTTTTTVTPVTIPGPAATTTLTSAGGSAGGSAGGS [r10_331_JUSTAS] | 5.48 ± 0.28 | 3.71 ± 0.188 | 2.3 ± 0.218 |
| SAGMTPEEVAEELREKLGLKEVTIERDPAADTLTITVTLPSPGETKTAVVPASALTPEAIRELLLEVLSSAG [r5_896_JUSTAS] | 11.6 ± 0.297 | 10.8 ± 0.201 | 10.04 ± 0.1 |
| SAGGSAGGSMYYVVVTRPGGRPEVIVVPTETLEEVEEVAARIAEALRELGIPEEELEIRVLPVSAGGSAGGS [r12_295_TrMRF] | 10 ± 0.192 | 8.47 ± 0.381 | 7.025 ± 0.0669 |
| SAGGMTEEEAKELAKELAEKYAEEKGIEEIELKIESVEKEGDKFTVKVKLTFPNEEKTITITIPKDLISAGG [r13_611_JUSTAS] | 14 ± 0.879 | 13.6 ± 0.46 | 13.4 ± 0.795 |
| SAGMEVEYTLTFELPGGLALRVTAKVRFNPETNELEVLELKVELLPLPPAPPPFISPEEAEKNGLLPEESAG [r5_393_TrMRF] | 15.9 ± 1.17 | 18.8 ± 1.46 | 18.6 ± 1.13 |
| SIKIERDGDKIKITFKVPGPFRIMIFNNDEIQETTIPPGKPVKIEIDIPKGNFYIMIYFPGKPLAQIPFKSA [r9_411_TrROS] | 9.52 ± 0.795 | 9.18 ± 1.3 | 8.22 ± 0.711 |
| SAGGSAGGKTLTIKLKDSTVTIELPSSISSISRIEVHSDGSLTLYHSSTGSTITLPIPPKIDNPSAGGSAGG [r6_369_TrMRF] | 7.29 ± 0.243 | 8.22 ± 0.213 | 8.63 ± 0.146 |
| SAGGKWRTIQLPGISIQLNPKDGTITVMMPSDMMEELKEAFGPGFEIDEIHHHPDGWMQMTIPIKPPSAGGS [r8_415_TrROS] | 4.95 ± 0.146 | 6.56 ± 0.628 | 7.3 ± 0.46 |
| SAGGSAMFMFELTIPPNAKIPPGYKLKIRFPNGKEEEYKFNNGPIKIWFYMDPDGNIQLDLEVEKKSAGGSA [r15_992_TrROS] | 12.4 ± 0.377 | 18.2 ± 0.628 | 20.5 ± 0.586 |
| PANVTYEFELADGYRVRVTLNPETGTATVEVEPVPERPPVAPVFIPRTLPEEEREALRRAAEEAGLEVVVGS [r1_242_TrMRF] | 10.1 ± 0.151 | 12.8 ± 0.226 | 14.01 ± 0.13 |
| SAGGSAGGSAGGPVIEIKVPSKEDALEAARKLLEELFGKKPEDMKITVEYNPEDKTIKIKSAGGSAGGSAGG [r7_387_TrROS_Hall] | 1.39 ± 0.264 | 4.13 ± 0.364 | 5.36 ± 0.226 |
| SAGGSAGGMKPGEEKEITLPDGSKIKVRIKDGKLEIEFENGERKEIEIKPGEKIEIKLPKGVKPSAGGSAGG [r6_970_TrROS_Hall] | 5.84 ± 0.318 | 7.56 ± 0.347 | 8.58 ± 0.356 |
| SAGGSAGGDGPGAPPVPRIRIKVEFEHNGKKVTWEFRSLDDMKEQVKERFKENGLKVKITEIEWSAGGSAGG [r6_869_TrROS] | 6.99 ± 0.251 | 7.87 ± 0.418 | 8.55 ± 0.172 |
| SAGGSAMPVKTSTTTEGDTVTTYTLEPVGGSTTLTTTTTTVTKTNSGTTTTSTTTTTPLPTASGATSAGGSA [r15_725_JUSTAS] | -0.329 ± 0.092 | -0.0584 ± 0.31 | -0.451 ± 0.31 |
